Results: the supplement of paper PMC10724198
± gives the standard deviation of the averaged measurements.

tested on: Saccharomyces cerevisiae; assay: protein stability index of tFT-peptide fusion (C-terminal peptide) (PSI (0-1 scale)); higher = more stable (slower turnover); conditions: genetic background: wild type; temperature: 30 C
Protocol: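 Multiplexed protein stability (MPS) profiling in S. cerevisiae. Random 12-aa peptides (tFT-X12 library) are fused to the C-terminus of a sfGFP-mCherry tandem fluorescent timer, after mCherry and a GGGS linker. Cells are FACS-sorted into 8 mCherry/sfGFP bins and deep-sequenced. The protein stability index (PSI) is the read-weighted bin average, scaled from 0 (unstable) to 1 (stable). Only peptides with >10 reads are reported; cells were grown at 30 °C in SC-His with glucose.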
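Further: PSI is a weighted mean of sequencing reads over stability bins, variants kept only with over 10 reads, mCherry proximal and sfGFP distal, peptide attached via GGGS linker.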

Point of comparison: APKLWLPYTCQS, protein stability index 0.705 ± 0.059. Against it:
- AADSKERPPRPP — lower, 0.625 ± 0.0092
- AAGEGSAPTRDR — within error, 0.672 ± 0.028
- AAGPILAFSVAC — within error, 0.638 ± 0.039
- AAGSVFAEGYTG — within error, 0.686 ± 0.042
- AAHSQNPPPPSS — within error, 0.697 ± 0.031
- AAIARRNIFKAR — within error, 0.689 ± 0.039
- AALSTYPLVTCS — lower, 0.547 ± 0.012
- AARYSRSPRTCF — within error, 0.6507 ± 0.0059
- AASVYAFLPGLY — within error, 0.651 ± 0.021
- AATGPPHPPSPP — higher, 0.804 ± 0.037
- AAVRPAHRICYS — within error, 0.733 ± 0.041
- AAWGSGMCLCVF — lower, 0.559 ± 0.046
- AAWSITFEVLSI — lower, 0.59 ± 0.026
- ACARIGRDYVTP — within error, 0.687 ± 0.016
- ACKWGVNKSTLG — within error, 0.703 ± 0.043
- ACLLYSGFSTEL — within error, 0.654 ± 0.0066
- ACLPRARLRFHV — within error, 0.669 ± 0.027
- ACRSGTRFAGIW — within error, 0.703 ± 0.016
- ACRTGSSLLHPI — within error, 0.706 ± 0.06
- ACSLGQSVLVCR — lower, 0.611 ± 0.02
- ACSSGGVGWGSV — within error, 0.66 ± 0.034
- ACWGFFIAGVRV — within error, 0.598 ± 0.056
- ADEGRGVGGVGG — within error, 0.699 ± 0.061
- ADGGVVLKVMEG — within error, 0.636 ± 0.077
- ADRSVGSAACSP — within error, 0.72 ± 0.15
- ADWGLLVNRSHH — within error, 0.725 ± 0.084
- ADYSRHSCSSSP — within error, 0.681 ± 0.053
- AEESPVDKRPKS — within error, 0.728 ± 0.036
- AENHCIASRIGH — within error, 0.659 ± 0.019
- AETPRGDTRLHE — within error, 0.699 ± 0.021
- AFAWERPCEIRF — within error, 0.6984 ± 0.0063
- AFCKTGSAGVGI — within error, 0.634 ± 0.046
- AFGCGGVPGDFA — lower, 0.63 ± 0.015
- AFLLPYTSLLLT — lower, 0.516 ± 0.026
- AFLLSSIRPSLR — within error, 0.7486 ± 0.005
- AFPAQSLRLRCE — within error, 0.688 ± 0.049
- AFRSISERLGGS — higher, 0.784 ± 0.018
- AFRVPGSCAFSP — within error, 0.641 ± 0.011
- AFSTGSIILEPR — within error, 0.646 ± 0.016
- AFYLYLSSTSRF — within error, 0.662 ± 0.0086
- AGAGGGGAVVVG — within error, 0.637 ± 0.039
- AGCRRGLGMETQ — within error, 0.648 ± 0.012
- AGCVAVYGVFLG — within error, 0.619 ± 0.13
- AGCVVGWGAWVL — within error, 0.7035 ± 0.0064
- AGDTCRLRIHVD — within error, 0.728 ± 0.021
- AGEGLIRMIVRP — within error, 0.694 ± 0.024
- AGGARADKQGGG — within error, 0.636 ± 0.071
- AGGGRGAEGCGG — within error, 0.783 ± 0.069
- AGGGVKLWWGRE — within error, 0.657 ± 0.054
- AGGPARWCLEVG — within error, 0.7 ± 0.015
- AGGRSVCGSALP — within error, 0.661 ± 0.016
- AGGWLRGGLGVG — within error, 0.7 ± 0.053
- AGIFGGGRGVSV — within error, 0.647 ± 0.039
- AGIGWGDLASPG — within error, 0.681 ± 0.025
- AGKVCGVGRLSI — within error, 0.65 ± 0.033
- AGLEPGTAALVD — within error, 0.641 ± 0.094
- AGLGLGRVNVMP — within error, 0.743 ± 0.03
- AGLSGRGFLRGA — within error, 0.6923 ± 0.0062
- AGMATWGILVSL — lower, 0.52 ± 0.008
- AGPGGAPVRWCR — within error, 0.723 ± 0.037
- AGPKYHLGIPAP — within error, 0.678 ± 0.014
- AGPPSPPLHPVG — within error, 0.696 ± 0.026
- AGREREVLFNLH — within error, 0.679 ± 0.067
- AGRFAPAEARVF — within error, 0.622 ± 0.056
- AGRVGVRGVVGG — within error, 0.748 ± 0.1
- AGRVRERMRVYG — within error, 0.639 ± 0.01
- AGSFGCREAVCP — within error, 0.658 ± 0.044
- AGSSQWSLGQLG — lower, 0.6345 ± 0.002
- AGVGGCVGLGCR — within error, 0.653 ± 0.042
- AHPGHRPSHPPY — within error, 0.727 ± 0.08
- AHPPLLPPLLPS — within error, 0.639 ± 0.015
- AHPPSPPPTRRP — within error, 0.676 ± 0.0079
- AHSAPGHPHDFP — within error, 0.664 ± 0.046
- AIALASTNLMAG — within error, 0.713 ± 0.097
- AIGDLQKAVPLM — within error, 0.718 ± 0.047
- AILHFTVSPRVY — lower, 0.561 ± 0.0097
- AIRRNVYSCVYG — lower, 0.603 ± 0.032
- AIYDSFRISYRT — within error, 0.675 ± 0.028
- AIYKGVIVGKKS — within error, 0.646 ± 0.043
- AKRFQTTWAGRM — within error, 0.61 ± 0.037
- AKSGEVIGSWFG — within error, 0.67127 ± 0.00043
- ALCHASSLHLQS — within error, 0.724 ± 0.059
- ALGNFPLGASVS — within error, 0.676 ± 0.035
- ALGRTPYSGCFL — within error, 0.631 ± 0.021
- ALKLVGSVWFGG — within error, 0.676 ± 0.15
- ALLAFMSSPRRL — within error, 0.7001 ± 0.0028
- ALLPPRPPSPLP — within error, 0.692 ± 0.016
- ALRLLRHTLSSS — within error, 0.703 ± 0.016
- ALRPYDVQVKFR — within error, 0.622 ± 0.038
- ALRVHVPPYVPA — within error, 0.6785 ± 0.0049
- ALSPPSPTPASA — within error, 0.694 ± 0.049
- ALSPSLWCYFPT — within error, 0.71 ± 0.029
- ALSTALVIPLLY — lower, 0.58818 ± 0.00035
- ALSVASVAVVPL — lower, 0.56 ± 0.015
- ALVLLIPLSLLL — lower, 0.522 ± 0.11
- ALVLYVSMSRGY — within error, 0.677 ± 0.054
- ALVPESDLGLNF — within error, 0.714 ± 0.026
- ALVSRGPCVFGW — within error, 0.662 ± 0.045
- ALYLFHAPRTPP — within error, 0.637 ± 0.014
- AMSLWFGFFHFV — lower, 0.555 ± 0.018
- ANAPQAEHASVL — within error, 0.699 ± 0.021
- ANKNNIQRTISL — within error, 0.756 ± 0.038
- ANRGYRYGASRV — within error, 0.649 ± 0.017
- APDLPHSTNLPR — within error, 0.741 ± 0.024
- APDPTIPYSPTP — within error, 0.717 ± 0.028
- APGSPLDPLTMF — within error, 0.6535 ± 0.0041
- APITPNPLYLNH — within error, 0.697 ± 0.055
- APLGLSFVSAVI — within error, 0.793 ± 0.087
- APNPYHKPPSLR — within error, 0.701 ± 0.11
- APPAPPLPAIPL — within error, 0.675 ± 0.038
- APPARSSPPPRP — within error, 0.686 ± 0.039
- APPHLVTYPLCP — within error, 0.66 ± 0.067
- APPPAFLPPPPA — within error, 0.729 ± 0.048
- APPPAPPLHPPS — within error, 0.739 ± 0.022
- APPPAPSPPLAP — within error, 0.69 ± 0.027
- APPPLPSLPPSP — within error, 0.701 ± 0.017
- APPPPAPPPLRP — within error, 0.724 ± 0.05
- APPPPARDLPPR — within error, 0.721 ± 0.017
- APPPPPPDPPLP — within error, 0.685 ± 0.011
- APPPRATLPRPP — within error, 0.673 ± 0.055
- APPPRSPPPPPL — within error, 0.6796 ± 0.0067
- APPSPPSPPGLP — within error, 0.672 ± 0.033
- APPSSYSSPPPS — within error, 0.692 ± 0.017
- APRPSLTPLSTP — within error, 0.653 ± 0.09
- APRRVPWLLGRV — within error, 0.578 ± 0.099
- APRTPATRPNHP — within error, 0.723 ± 0.045
- APSGFRRKDVDL — within error, 0.68 ± 0.034
- APSGPFLFIMNA — within error, 0.663 ± 0.047
- APSGVGANGWGR — within error, 0.654 ± 0.0085
- APSPPSVPSPPP — within error, 0.675 ± 0.0088
- APSRPFPAHPPP — within error, 0.602 ± 0.044
- APSRTTERILLL — within error, 0.714 ± 0.029
- APTPPPPPPPLP — within error, 0.752 ± 0.011
- APTQANLRSSRS — within error, 0.73 ± 0.022
- APTRVDTAGSCV — within error, 0.676 ± 0.051
- APVEVYRHAEAS — within error, 0.67 ± 0.035
- APVSLHVPPCSR — within error, 0.669 ± 0.026
- AQLGQTCDRDGM — within error, 0.79 ± 0.17
- AQPCISGLTCRY — within error, 0.729 ± 0.0096
- AQPDAFAGVWGV — within error, 0.7177 ± 0.0028
- AQTPNPEPLENN — within error, 0.699 ± 0.033
- ARATPLWDLMPP — within error, 0.615 ± 0.094
- ARCSPVPWGGGE — within error, 0.647 ± 0.033
- ARGSRNHRGAGA — within error, 0.738 ± 0.067
- ARIVEQTLCTKS — within error, 0.679 ± 0.057
- ARLDVFTMYKDR — within error, 0.748 ± 0.056
- ARLRSTPVVLPT — within error, 0.668 ± 0.024
- ARLSHLQSLRFI — lower, 0.5476 ± 0.0012
- ARLSNLPPSPPR — within error, 0.678 ± 0.032
- ARNGVCTERSVL — within error, 0.691 ± 0.028
- ARNNVRKTEQQC — within error, 0.717 ± 0.11
- ARPPPPPPSVDP — within error, 0.719 ± 0.011
- ARPPSPRPPPAP — within error, 0.675 ± 0.062
- ARPRSGIRGSGV — within error, 0.6848 ± 0.0048
